One assay has as its target T1, G9a and GLP (Homo sapiens, UniProt Q96KQ7+Q9H9B1).
T1 sequence (Q96KQ7 2-1210 limits assumed): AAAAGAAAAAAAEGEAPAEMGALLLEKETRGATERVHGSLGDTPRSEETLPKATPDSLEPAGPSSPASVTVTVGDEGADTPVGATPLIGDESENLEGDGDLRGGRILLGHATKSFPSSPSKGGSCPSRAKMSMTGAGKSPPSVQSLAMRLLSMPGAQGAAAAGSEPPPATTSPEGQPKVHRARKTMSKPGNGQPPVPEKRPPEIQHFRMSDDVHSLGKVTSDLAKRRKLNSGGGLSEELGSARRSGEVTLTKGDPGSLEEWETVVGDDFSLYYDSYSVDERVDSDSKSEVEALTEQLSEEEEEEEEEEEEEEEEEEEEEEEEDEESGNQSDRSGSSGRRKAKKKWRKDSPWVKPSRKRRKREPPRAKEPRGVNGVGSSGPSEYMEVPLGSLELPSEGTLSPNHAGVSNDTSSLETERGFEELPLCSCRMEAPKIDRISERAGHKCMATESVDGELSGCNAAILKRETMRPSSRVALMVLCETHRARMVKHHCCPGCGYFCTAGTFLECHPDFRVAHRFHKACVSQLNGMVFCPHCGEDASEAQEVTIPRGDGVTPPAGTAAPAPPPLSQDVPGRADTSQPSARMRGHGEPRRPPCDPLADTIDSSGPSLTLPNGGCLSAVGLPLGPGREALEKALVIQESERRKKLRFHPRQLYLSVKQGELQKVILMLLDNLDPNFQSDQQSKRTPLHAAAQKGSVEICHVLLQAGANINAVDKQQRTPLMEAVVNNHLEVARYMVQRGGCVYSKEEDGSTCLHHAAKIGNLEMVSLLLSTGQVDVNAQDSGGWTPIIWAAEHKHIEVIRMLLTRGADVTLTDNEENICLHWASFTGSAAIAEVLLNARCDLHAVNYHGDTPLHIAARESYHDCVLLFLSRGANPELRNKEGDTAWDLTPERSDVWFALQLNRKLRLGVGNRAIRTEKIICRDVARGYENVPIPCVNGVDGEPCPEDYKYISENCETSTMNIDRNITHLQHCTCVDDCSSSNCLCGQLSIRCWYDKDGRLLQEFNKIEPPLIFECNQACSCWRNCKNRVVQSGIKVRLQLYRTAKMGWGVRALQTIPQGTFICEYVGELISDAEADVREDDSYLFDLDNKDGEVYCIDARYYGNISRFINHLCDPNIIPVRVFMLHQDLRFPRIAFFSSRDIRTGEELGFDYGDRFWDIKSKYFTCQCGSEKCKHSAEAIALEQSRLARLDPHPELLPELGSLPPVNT
T1 sequence (Q9H9B1 2-1298 limits assumed): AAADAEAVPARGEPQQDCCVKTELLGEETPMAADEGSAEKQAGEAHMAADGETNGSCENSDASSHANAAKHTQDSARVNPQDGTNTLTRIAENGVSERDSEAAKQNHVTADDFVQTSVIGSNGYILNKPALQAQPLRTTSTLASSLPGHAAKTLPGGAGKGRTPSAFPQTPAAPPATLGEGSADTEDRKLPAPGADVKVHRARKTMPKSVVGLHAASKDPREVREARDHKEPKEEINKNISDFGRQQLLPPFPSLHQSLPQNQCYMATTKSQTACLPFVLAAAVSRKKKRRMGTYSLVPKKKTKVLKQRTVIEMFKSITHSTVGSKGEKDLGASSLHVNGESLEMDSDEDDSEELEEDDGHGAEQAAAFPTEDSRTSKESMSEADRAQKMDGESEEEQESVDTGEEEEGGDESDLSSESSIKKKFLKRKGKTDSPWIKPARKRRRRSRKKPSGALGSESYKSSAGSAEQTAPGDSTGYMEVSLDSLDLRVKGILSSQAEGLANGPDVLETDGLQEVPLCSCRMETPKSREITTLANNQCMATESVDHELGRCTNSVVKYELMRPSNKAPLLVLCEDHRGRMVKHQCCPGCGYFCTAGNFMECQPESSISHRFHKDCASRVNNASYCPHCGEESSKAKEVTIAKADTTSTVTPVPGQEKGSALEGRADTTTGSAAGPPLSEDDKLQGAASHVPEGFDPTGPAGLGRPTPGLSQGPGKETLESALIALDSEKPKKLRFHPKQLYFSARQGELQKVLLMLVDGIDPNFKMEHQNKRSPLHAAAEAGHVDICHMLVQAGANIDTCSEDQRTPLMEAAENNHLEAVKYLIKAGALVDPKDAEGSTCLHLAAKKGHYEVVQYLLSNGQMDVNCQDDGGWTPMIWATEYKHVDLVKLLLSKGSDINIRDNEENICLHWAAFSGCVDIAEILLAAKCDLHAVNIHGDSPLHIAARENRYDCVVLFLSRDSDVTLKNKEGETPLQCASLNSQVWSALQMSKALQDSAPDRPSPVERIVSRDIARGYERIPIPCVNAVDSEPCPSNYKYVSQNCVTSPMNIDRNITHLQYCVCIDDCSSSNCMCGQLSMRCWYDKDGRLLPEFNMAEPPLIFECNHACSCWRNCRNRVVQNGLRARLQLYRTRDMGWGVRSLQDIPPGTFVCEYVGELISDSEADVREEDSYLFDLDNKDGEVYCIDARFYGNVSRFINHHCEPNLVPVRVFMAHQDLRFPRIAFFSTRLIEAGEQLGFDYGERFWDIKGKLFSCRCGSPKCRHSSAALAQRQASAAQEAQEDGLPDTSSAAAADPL
The assay is described as follows: Triple SILAC pull-down after UNC0638 treatment of 293T cells, DMSO/UNC0638 ratio of protein captured by 3×MBT.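 On all read-outs here: mass spectrometry (Q-Exactive) SILAC quantitation, DMSO/UNC0638 ratio computed after subtracting 3×MBTD355N mutant pull-down background, only proteins with at least twofold 3×MBT over mutant signal considered.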 The class given is cell-based. Further details: cells were treated for 24 hours with UNC0638 at 2.5 μM or DMSO vehicle control; endogenous in cells; host or cells: HEK 293T. The settings on record: for Relative to UNC0638 UNC Heavy / Relative to UNC0638 UNC Light: SILAC ratio DMSO/UNC0638 of protein pulled down with 3xMBT; for Relative to UNC0638 UNC Heavy: UNC0638 in heavy SILAC media; for Relative to UNC0638 UNC Light: UNC0638 in light SILAC media; for Relative to UNC0638 Average: average of UNC Light and UNC Heavy experiments.

The subject of another assay is 3×MBT domain of L3MBTL1. Briefly: Triple SILAC pull-down, 3xMBT/3xMBTD355N ratio (cytoplasmic, nuclear and chromatin fractions of 293T cells).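 On all read-outs here: proteins quantified with MaxQuant, requiring at least two unique peptides and quantification in both label directions, normalized to the mean of proteins from a digested loading control.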 The class given is binding, human. The following applies: SILAC ratio, pull-down 3xMBT vs 3xMBTD355N; for 3xMBT/D355N UNC Heavy: experiment with UNC0638 in heavy SILAC media; for 3xMBT/D355N UNC Light: experiment with UNC0638 in light SILAC media.

B1: HNRNPH2 (protein, UniProt P55795 1-449, looked up)
Heterogeneous nuclear …: MMLSTEGREGFVVKVRGLPWSCSADEVMRFFSDCKIQNGTSGIRFIYTREGRPSGEAFVELESEEEVKLALKKDRETMGHRYVEVFKSNSVEMDWVLKHTGPNSPDTANDGFVRLRGLPFGCSKEEIVQFFSGLEIVPNGMTLPVDFQGRSTGEAFVQFASQEIAEKALKKHKERIGHRYIEIFKSSRAEVRTHYDPPRKLMAMQRPGPYDRPGAGRGYNSIGRGAGFERMRRGAYGGGYGGYDDYGGYNDGYGFGSDRFGRDLNYCFSGMSDHRYGDGGSSFQSTTGHCVHMRGLPYRATENDIYNFFSPLNPMRVHIEIGPDGRVTGEADVEFATHEDAVAAMAKDKANMQHRYVELFLNSTAGTSGGAYDHSYVELFLNSTAGASGGAYGSQMMGGMGLSNQSSYGGPASQQLSGGYGGGYGGQSSMSGYDQVLQENSSDYQSNLA
Turning to B1, in the assay with G9a and GLP, the “Relative to UNC0638 UNC Heavy” value was determined as 0.18 log base 2, the “Relative to UNC0638 UNC Light” value was 0.32 log base 2 and the “Relative to UNC0638 Average” value is 0.25 log base 2. Moreover, in the assay on 3×MBT domain of L3MBTL1, the “3xMBT/D355N UNC Heavy” value is listed as 1.02 log base 2 and the “3xMBT/D355N UNC Light” value worked out at 2.68 log base 2.

B2: SF3B2 (protein, UniProt Q13435 1-895, looked up)
Splicing factor 3B subunit 2: MATEHPEPPKAELQLPPPPPPGHYGAWAAQELQAKLAEIGAPIQGNREELVERLQSYTRQTGIVLNRPVLRGEDGDKAAPPPMSAQLPGIPMPPPPLGLPPLQPPPPPPPPPPGLGLGFPMAHPPNLGPPPPLRVGEPVALSEEERLKLAQQQAALLMQQEERAKQQGDHSLKEHELLEQQKRAAVLLEQERQQEIAKMGTPVPRPPQDMGQIGVRTPLGPRVAAPVGPVGPTPTVLPMGAPVPRPRGPPPPPGDENREMDDPSVGPKIPQALEKILQLKESRQEEMNSQQEEEEMETDARSSLGQSASETEEDTVSVSKKEKNRKRRNRKKKKKPQRVRGVSSESSGDREKDSTRSRGSDSPAADVEIEYVTEEPEIYEPNFIFFKRIFEAFKLTDDVKKEKEKEPEKLDKLENSAAPKKKGFEEEHKDSDDDSSDDEQEKKPEAPKLSKKKLRRMNRFTVAELKQLVARPDVVEMHDVTAQDPKLLVHLKATRNSVPVPRHWCFKRKYLQGKRGIEKPPFELPDFIKRTGIQEMREALQEKEEQKTMKSKMREKVRPKMGKIDIDYQKLHDAFFKWQTKPKLTIHGDLYYEGKEFETRLKEKKPGDLSDELRISLGMPVGPNAHKVPPPWLIAMQRYGPPPSYPNLKIPGLNSPIPESCSFGYHAGGWGKPPVDETGKPLYGDVFGTNAAEFQTKTEEEEIDRTPWGELEPSDEESSEEEEEEESDEDKPDETGFITPADSGLITPGGFSSVPAGMETPELIELRKKKIEEAMDGSETPQLFTVLPEKRTATVGGAMMGSTHIYDMSTVMSRKGPAPELQGVEVALAPEELELDPMAMTQKYEEHVREQQAQVEKEDFSDMVAEHAAKQKQKKRKAQPQDSRGGSKKYKEFKF
Turning to B2, in the assay with G9a and GLP, the “Relative to UNC0638 UNC Heavy” value was 0.17 log base 2, the “Relative to UNC0638 UNC Light” value was 0.33 log base 2 and the “Relative to UNC0638 Average” value was 0.25 log base 2. In the assay on 3×MBT domain of L3MBTL1, the “3xMBT/D355N UNC Heavy” value is 3.89 log base 2 and the “3xMBT/D355N UNC Light” value came to 3.33 log base 2.
